Experimental findings from patent US20050064507A1, “Determining kinase specificity” (priority 2003, published 2005) are described below.

Assay type in all cases: biochemical
One assay concerns the target T1, PKC-zeta (Homo sapiens, UniProt Q05513).
T1 construct: purchased Calbiochem
T1 sequence (Q05513 1-592): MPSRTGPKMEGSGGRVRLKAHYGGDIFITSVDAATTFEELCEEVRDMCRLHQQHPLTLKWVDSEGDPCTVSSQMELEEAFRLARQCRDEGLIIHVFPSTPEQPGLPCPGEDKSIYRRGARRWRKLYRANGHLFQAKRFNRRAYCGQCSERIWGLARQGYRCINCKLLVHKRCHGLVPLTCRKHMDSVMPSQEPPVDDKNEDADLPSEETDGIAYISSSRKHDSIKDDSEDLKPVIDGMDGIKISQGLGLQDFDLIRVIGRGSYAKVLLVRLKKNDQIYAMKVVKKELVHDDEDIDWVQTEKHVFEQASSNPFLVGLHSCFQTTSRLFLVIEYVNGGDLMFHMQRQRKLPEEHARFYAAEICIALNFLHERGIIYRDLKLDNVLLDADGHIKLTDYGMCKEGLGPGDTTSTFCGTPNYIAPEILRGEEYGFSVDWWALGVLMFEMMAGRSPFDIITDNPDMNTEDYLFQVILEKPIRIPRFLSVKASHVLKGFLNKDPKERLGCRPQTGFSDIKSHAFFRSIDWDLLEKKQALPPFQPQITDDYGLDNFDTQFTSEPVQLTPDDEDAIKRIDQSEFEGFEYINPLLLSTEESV
Put plainly: In vitro kinase assay: peptide phosphorylation by PKC-zeta. Conditions: for PKC-zeta phosphorylation: normalized to best substrate.

Another assay concerns the target T2, PKA (Homo sapiens, UniProt P17612).
T2 construct: purchased Calbiochem
Briefly: In vitro kinase assay: peptide phosphorylation by PKA. To be noted: normalized to best substrate. As for the experimental part: (§1) Catalytically active preparations of the kinases of interest were either purchased or prepared. Purchased and tested active kinase preparations including the following: PKC-alpha, PKC-delta, PKC-epsilon, PKC-zeta, PKC-mu, PKA, PKG from Calbiochem, ROK alpha/ROCK-II, active from Upstate Biotechnology, and AKT1 from Panvera.
(§2) The conditions of the kinase assay and the amount of active kinase used varied with the kinase and with the accuracy needed. For a typical experiment, 5-20 ng of kinase was used per well and each peptide pool was assayed in duplicate wells. Note that the absolute amount of kinase used was not usually a critical parameter, because the desired information related to specificity of the kinase not its absolute activity, and robustness of the assay depends on comparisons of the same amount of kinase on different peptides. The combination of kinase concentration and assay duration was modified to assure that the stoichiometry of peptide phosphorylation never exceeded 5%. The choice of kinase buffer depended on the kinase being analyzed. For studies of PKC, 100 mM HEPES, 0.05% Triton-X100, 1 mM CaCl2, 20 mM MgCl2, 0.2 mg/ml phosphatidyl serine (Avanti Polar Lipids), PMA 100 ng/ml was typically used. The lipid stock was prepared by transferring 3 mg phosphatidyl serine into iced mixture of 450 μl water plus 50 μl of 10% Triton-X100, sonicating 10 times on ice for 1 sec each.
(§3) The kinase reaction mixture was assembled by sequential addition to a tube held on ice of: 5 μl peptide (100 μM for final concentration of 10 μM), 15 μl of kinase (typically 5 ng/well, in appropriate kinase buffer), 30 μl of ATP (1 uCi/well of ^32P-gamma ATP in a stock of 167 μM cold ATP in the kinase buffer; for final concentration for 100 μM ATP). The mixture was rapidly warmed to desired reaction temperature (30° C. for PKC) and incubated for the desired duration (usually 10 minutes). The kinase assay was terminated by transfer to 4° C. water batch, and rapid addition of an equal volume (50 μl) of stop solution [0.1M ATP+0.1M EDTA in water, pH 8].
(§4) The peptides were then captured from the reaction mixture by transfer to a Reacti-Bind Streptavidin High Binding Capacity Coated Plates (HBC) (Pierce Biotechnology) as follows. The HBC plates were pre-rinsed three times with PBS/Tween PBS/Tween20 0.05% (PBS/Tween). Part of all of the reaction mixture was then transferred wells of a HBC plate pre-filled with 90 μl of phosphate-buffered saline (PBS); typically each aliquots of each phosphorylation reaction were transferred to duplicate HBC plates to assure accuracy by additional replication
(§5) For kinase assays done at the standard peptide concentration of 10 μM, the peptide concentration in the reaction mixture becomes 5 μM after addition of the stop solution; consequently 10 μl of the reaction (50 pMoles of peptide) was transferred to the HBC plate. More generally, the amount of reaction mixture transferred was estimated to be about 50 pMoles of peptide. […] The HBC plates were incubated for 0.5 to 1.5 hr at room temperature for complete binding of biotinylated peptides to plate-bound streptavidin. The HBC plates were then washed extensively with PBS/Tween. Five washes were done routinely and additional wash steps were added if the wash solution removed from the plate had measurable radioactivity as detected using a Geiger counter. This step is essential to obtaining a good the signal to noise ratio because the fraction of radioactivity incorporated in the peptides was a tiny fraction of the total in the reaction mixture. The wells were air-dried. A volume of 40-50 μl of microScint-20 (Packard Instruments) was added to each well. The plates were covered with stick-on film sheet. Radioactive emissions were measured in a TopCount NXT Microplate Scintillation and Luminescence Counter (Packard Instruments). Typically samples were counted for 5 minutes (or more) to improve the signal to noise ratio when counts were low. […]

The next assay addresses T3, AKT1 (Homo sapiens, UniProt P31749).
T3 construct: purchased Panvera
Briefly: In vitro kinase assay: peptide phosphorylation by AKT1. Conditions: normalized to best substrate. As for the experimental part: as §1, §2, §3, §4, §5

A further assay has as its system PKC. Briefly: In vitro phosphorylation by PKC (average of isoforms alpha, epsilon, delta, theta). To be noted: for PKC average: average of PKC-alpha, -epsilon, -theta, normalized to best substrate; for average (phosphorylation by PKC-theta, -delta, -epsilon, -alpha): average over PKC-theta, -epsilon and -alpha at 10 and 1 uM peptide, relative to best substrate.

T3 sequence (P31749 whole entry, species assumed): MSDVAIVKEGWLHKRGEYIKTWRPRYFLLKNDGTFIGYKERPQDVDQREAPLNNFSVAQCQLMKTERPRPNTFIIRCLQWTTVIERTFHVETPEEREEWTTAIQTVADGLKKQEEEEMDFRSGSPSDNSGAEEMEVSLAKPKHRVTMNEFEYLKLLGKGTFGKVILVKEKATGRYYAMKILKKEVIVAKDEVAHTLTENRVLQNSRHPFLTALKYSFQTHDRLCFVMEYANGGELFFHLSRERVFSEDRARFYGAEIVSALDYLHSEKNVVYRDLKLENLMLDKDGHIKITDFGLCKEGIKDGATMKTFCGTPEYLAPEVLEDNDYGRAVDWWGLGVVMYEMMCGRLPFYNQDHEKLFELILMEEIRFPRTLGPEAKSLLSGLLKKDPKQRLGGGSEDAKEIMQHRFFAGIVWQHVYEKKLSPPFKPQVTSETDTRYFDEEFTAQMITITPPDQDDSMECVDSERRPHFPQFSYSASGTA

On to 81 (KRERKTSSKSSVRKRR) [compound 81], for which the PKC-zeta phosphorylation with PKC-zeta amounted to 10%. The PKA phosphorylation with PKA was 2%. The AKT1 phosphorylation with AKT1 is 9%. For the same substance, in the assay on PKC, the PKC average was 56%.

Regarding 87 (RQGKRKTSIKRDTVNPL) [compound 87], the PKC-zeta phosphorylation in the assay with PKC-zeta is reported as 3%. Besides, in the assay with PKA, the PKA phosphorylation turned out to be 64%. Moreover, in the assay with AKT1, the AKT1 phosphorylation is on record as 7%. The PKC average in the assay on PKC is given as 47%.

In the case of 88 (KKPFKLSGLSFKRNRKE) [compound 88], in the assay with PKC-zeta, the PKC-zeta phosphorylation worked out at 4%. Also, the PKA phosphorylation with PKA is on record as 3%. Moreover, the AKT1 phosphorylation with AKT1 was 10%. In the assay on PKC, the PKC average is given as 43%.

As to 91 (VHYTSKDTLRKRHYWR) [compound 91], the PKC-zeta phosphorylation with PKC-zeta is 12%. In addition, in the assay with PKA, the PKA phosphorylation is 3%. Moreover, in the assay with AKT1, the AKT1 phosphorylation is listed as 5%. Besides, the PKC average with PKC is on record as 40%.

On to 97 (KKRSSKKEASMKKVVRP) [compound 97], for which the PKC-zeta phosphorylation with PKC-zeta turned out to be 1%. Moreover, the PKA phosphorylation with PKA is given as 1%. In addition, the AKT1 phosphorylation with AKT1 is given as 10%. Moreover, the PKC average with PKC amounted to 28%.

With 98 (AGPLRKSSLKKGGRL) [compound 98], in the assay with PKC-zeta, the PKC-zeta phosphorylation is recorded as 4%. Besides, the PKA phosphorylation with PKA is 21%. The AKT1 phosphorylation in the assay with AKT1 came to 7%. For the same substance, the PKC average in the assay on PKC was 27%.

For “148 (RELEQLKAEYLERRASRRRA) [compound 148]”, the “phosphorylation by PKC zeta” value in the assay with PKC-zeta (peptide concentration 1 uM) and in the assay with PKC-zeta (peptide concentration 10 uM) was 20 each time. Besides, the “average (phosphorylation by PKC-theta, -delta, -epsilon, -alpha)” value in the assay with PKC worked out at 26.

As for 149 (RVVQSVKHTKRKSSTVMK) [compound 149], the entries for the “phosphorylation by PKC zeta” value with PKC-zeta (peptide concentration 1 uM) and with PKC-zeta (peptide concentration 10 uM) were 3 and 5, respectively. Moreover, the “average (phosphorylation by PKC-theta, -delta, -epsilon, -alpha)” value with PKC is 25.

As for “150 (VDPFYEMLAARKKRISVKKK) [compound 150]”, the “phosphorylation by PKC zeta” value turned out to be 3 in the assay with PKC-zeta (peptide concentration 1 uM) and 6 with PKC-zeta (peptide concentration 10 uM). The “average (phosphorylation by PKC-theta, -delta, -epsilon, -alpha)” value in the assay with PKC was 24.

Regarding “151 (PQNSLKASNRKKKRTSFKRK) [compound 151]”, the results for the “phosphorylation by PKC zeta” value in the assay with PKC-zeta (peptide concentration 1 uM) and in the assay with PKC-zeta (peptide concentration 10 uM) were 15 and 28, respectively. In addition, the “average (phosphorylation by PKC-theta, -delta, -epsilon, -alpha)” value in the assay with PKC amounted to 24.

Take “152 (DLIEGRKGAQIVKRASLKRG) [compound 152]”: the figures for the “phosphorylation by PKC zeta” value in the assay with PKC-zeta (peptide concentration 1 uM) and with PKC-zeta (peptide concentration 10 uM) were 4 and 9, respectively. Also, in the assay on PKC, the “average (phosphorylation by PKC-theta, -delta, -epsilon, -alpha)” value is listed as 23.

As to “153 (TYLLPDKSRQGKRKTSIKRD) [compound 153]”, the figures for the “phosphorylation by PKC zeta” value with PKC-zeta (peptide concentration 1 uM) and with PKC-zeta (peptide concentration 10 uM) were 6 and 13, respectively. Besides, the “average (phosphorylation by PKC-theta, -delta, -epsilon, -alpha)” value in the assay with PKC is reported as 23.
